# How the values were obtained:
# PARP1-GFP = target: T1, PARP1-GFP (UniProt P09874 1-1014); assay: affinity purification with mass spectrometry; GFP pull-down of PARP1-GFP or GFP-PARP2 from U2OS (FRT) WT cells, label-free proteomics with iBAQ quantification; cells unirradiated or UV-C-irradiated (20 J/m^2, 1 h); conditions: partners not purified
# T1 construct: source: U2OS (FRT) WT, stably expressed (Flp-In, doxycycline-inducible), in lysate; not shown: GFP, C-terminal, kept
# GFP-PARP2 = target: T2, GFP-PARP2 (UniProt Q9UGN5-2 1-570); assay: as above; conditions: partners not purified
# T2 construct: also called PARP2-GFP; source: U2OS (FRT) WT, stably expressed (Flp-In, doxycycline-inducible), in lysate; not shown: GFP, N-terminal, kept
# T2 sequence (Q9UGN5 other isoform, or with tags, fused parts or gaps): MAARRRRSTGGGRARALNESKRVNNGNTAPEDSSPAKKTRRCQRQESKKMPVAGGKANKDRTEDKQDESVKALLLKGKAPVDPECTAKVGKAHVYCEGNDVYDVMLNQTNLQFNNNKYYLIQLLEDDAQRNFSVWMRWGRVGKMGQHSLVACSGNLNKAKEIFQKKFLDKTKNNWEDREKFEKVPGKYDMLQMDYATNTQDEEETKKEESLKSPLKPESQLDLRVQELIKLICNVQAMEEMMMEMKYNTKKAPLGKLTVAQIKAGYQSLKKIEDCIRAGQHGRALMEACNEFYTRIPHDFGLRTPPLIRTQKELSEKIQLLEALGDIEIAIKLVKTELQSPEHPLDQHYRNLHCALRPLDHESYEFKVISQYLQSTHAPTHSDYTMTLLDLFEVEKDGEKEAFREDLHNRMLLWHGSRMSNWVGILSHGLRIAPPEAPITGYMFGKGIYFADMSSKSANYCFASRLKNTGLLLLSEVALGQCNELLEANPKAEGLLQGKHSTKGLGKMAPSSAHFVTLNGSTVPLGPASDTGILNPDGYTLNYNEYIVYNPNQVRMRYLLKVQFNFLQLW
# T1 sequence (P09874 whole entry): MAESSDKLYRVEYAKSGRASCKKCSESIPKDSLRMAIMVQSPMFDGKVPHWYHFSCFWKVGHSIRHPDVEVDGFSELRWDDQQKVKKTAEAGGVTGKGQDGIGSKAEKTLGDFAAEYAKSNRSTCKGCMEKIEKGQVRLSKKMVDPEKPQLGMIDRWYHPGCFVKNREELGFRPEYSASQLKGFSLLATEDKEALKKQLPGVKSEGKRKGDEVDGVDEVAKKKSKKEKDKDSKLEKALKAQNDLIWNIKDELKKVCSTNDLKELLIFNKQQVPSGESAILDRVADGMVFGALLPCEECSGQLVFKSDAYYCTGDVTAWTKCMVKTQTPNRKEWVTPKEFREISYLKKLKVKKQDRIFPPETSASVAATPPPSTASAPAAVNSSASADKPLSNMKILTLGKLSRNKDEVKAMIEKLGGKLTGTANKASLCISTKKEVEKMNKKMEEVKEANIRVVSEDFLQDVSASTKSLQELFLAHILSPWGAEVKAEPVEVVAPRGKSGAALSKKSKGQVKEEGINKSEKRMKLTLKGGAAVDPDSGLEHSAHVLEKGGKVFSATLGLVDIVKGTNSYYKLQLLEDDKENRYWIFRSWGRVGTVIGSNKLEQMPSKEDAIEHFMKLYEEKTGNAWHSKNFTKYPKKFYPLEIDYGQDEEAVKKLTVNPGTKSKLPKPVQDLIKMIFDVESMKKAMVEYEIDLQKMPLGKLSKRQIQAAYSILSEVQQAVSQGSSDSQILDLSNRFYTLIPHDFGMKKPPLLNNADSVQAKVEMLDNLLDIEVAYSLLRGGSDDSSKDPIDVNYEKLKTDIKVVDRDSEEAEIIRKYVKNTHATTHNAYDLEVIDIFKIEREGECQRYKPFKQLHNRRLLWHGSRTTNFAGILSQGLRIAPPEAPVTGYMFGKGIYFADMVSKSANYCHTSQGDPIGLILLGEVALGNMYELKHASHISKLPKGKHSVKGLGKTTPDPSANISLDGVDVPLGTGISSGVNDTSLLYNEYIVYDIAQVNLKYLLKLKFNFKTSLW
percent of the isolated bait molecules associated with the prey (iBAQ) (PARP1-GFP) [%],percent of the isolated bait molecules associated with the prey (iBAQ) (GFP-PARP2) [%],"fold, fraction of bait molecules associated with XPC, GFP-PARP2 against PARP1-GFP (iBAQ) (GFP-PARP2) [fold]",Binder
0.07,~15,,"ALC1 (endogenous) (enzyme, human (endogenous in U2OS), UniProt Q86WJ1 1-897, looked up, ALC1 (CHD1L), endogenous in U2OS cells; also called poly-(ADP-ribose)-dependent chromatin remodeler ALC1; the remodeler; source: endogenous, U2OS (FRT) WT lysate) MERAGATSRGGQAPGFLLRLHTEGRAEAARVQEQDLRQWGLTGIHLRSYQLEGVNWLAQRFHCQNGCILGDEMGLGKTCQTIALFIYLAGRLNDEGPFLILCPLSVLSNWKEEMQRFAPGLSCVTYAGDKEERACLQQDLKQESRFHVLLTTYEICLKDASFLKSFPWSVLVVDEAHRLKNQSSLLHKTLSEFSVVFSLLLTGTPIQNSLQELYSLLSFVEPDLFSKEEVGDFIQRYQDIEKESESASELHKLLQPFLLRRVKAEVATELPKKTEVVIYHGMSALQKKYYKAILMKDLDAFENETAKKVKLQNILSQLRKCVDHPYLFDGVEPEPFEVGDHLTEASGKLHLLDKLLAFLYSGGHRVLLFSQMTQMLDILQDYMDYRGYSYERVDGSVRGEERHLAIKNFGQQPIFVFLLSTRAGGVGMNLTAADTVIFVDSDFNPQNDLQAAARAHRIGQNKSVKVIRLIGRDTVEEIVYRKAASKLQLTNMIIEGGHFTLGAQKPAADADLQLSEILKFGLDKLLASEGSTMDEIDLESILGETKDGQWVSDALPAAEGGSRDQEEGKNHMYLFEGKDYSKEPSKEDRKSFEQLVNLQKTLLEKASQEGRSLRNKGSVLIPGLVEGSTKRKRVLSPEELEDRQKKRQEAAAKRRRLIEEKKRQKEEAEHKKKMAWWESNNYQSFCLPSEESEPEDLENGEESSAELDYQDPDATSLKYVSGDVTHPQAGAEDALIVHCVDDSGHWGRGGLFTALEKRSAEPRKIYELAGKMKDLSLGGVLLFPVDDKESRNKGQDLLALIVAQHRDRSNVLSGIKMAALEEGLKKIFLAAKKKKASVHLPRIGHATKGFNWYGTERLIRKHLAARGIPTYIYYFPRSKSAVLHSQSSSSSSRQLVP"
,,10,"XPC (endogenous) (natural protein, human (endogenous in U2OS), UniProt Q01831 1-940, looked up, XPC, endogenous in U2OS cells; source: endogenous, U2OS (FRT) WT lysate) MARKRAAGGEPRGRELRSQKSKAKSKARREEEEEDAFEDEKPPKKSLLSKVSQGKRKRGCSHPGGSADGPAKKKVAKVTVKSENLKVIKDEALSDGDDLRDFPSDLKKAHHLKRGATMNEDSNEEEEESENDWEEVEELSEPVLGDVRESTAFSRSLLPVKPVEIEIETPEQAKTRERSEKIKLEFETYLRRAMKRFNKGVHEDTHKVHLLCLLANGFYRNNICSQPDLHAIGLSIIPARFTRVLPRDVDTYYLSNLVKWFIGTFTVNAELSASEQDNLQTTLERRFAIYSARDDEELVHIFLLILRALQLLTRLVLSLQPIPLKSATAKGKKPSKERLTADPGGSSETSSQVLENHTKPKTSKGTKQEETFAKGTCRPSAKGKRNKGGRKKRSKPSSSEEDEGPGDKQEKATQRRPHGRERRVASRVSYKEESGSDEAGSGSDFELSSGEASDPSDEDSEPGPPKQRKAPAPQRTKAGSKSASRTHRGSHRKDPSLPAASSSSSSSKRGKKMCSDGEKAEKRSIAGIDQWLEVFCEQEEKWVCVDCVHGVVGQPLTCYKYATKPMTYVVGIDSDGWVRDVTQRYDPVWMTVTRKCRVDAEWWAETLRPYQSPFMDREKKEDLEFQAKHMDQPLPTAIGLYKNHPLYALKRHLLKYEAIYPETAAILGYCRGEAVYSRDCVHTLHSRDTWLKKARVVRLGEVPYKMVKGFSNRARKARLAEPQLREENDLGLFGYWQTEEYQPPVAVDGKVPRNEFGNVYLFLPSMMPIGCVQLNLPNLHRVARKLDIDCVQAITGFDFHGGYSHPVTDGYIVCEEFKDVLLTAWENEQAVIERKEKEKKEKRALGNWKLLAKGLLIRERLKRRYGPKSEAAAPHTDAGGGLSSDEEEGTSSQAEAARILAASWPQNREDEEKQKLKGGPKKTKREKKAAASHLFPFEQL"

# Reference: article PMC9376112, “XPC–PARP complexes engage the chromatin remodeler ALC1 to catalyze global genome DNA damage repair” (Nature Communications, 2022)
